Measured values taken from PMC4520572.

Molecular target: soluble neuronal SNARE complex (unlabeled) (UniProt P32851)
Sequence (P32851 1-265 S249C/K253C, chain 1 of 3): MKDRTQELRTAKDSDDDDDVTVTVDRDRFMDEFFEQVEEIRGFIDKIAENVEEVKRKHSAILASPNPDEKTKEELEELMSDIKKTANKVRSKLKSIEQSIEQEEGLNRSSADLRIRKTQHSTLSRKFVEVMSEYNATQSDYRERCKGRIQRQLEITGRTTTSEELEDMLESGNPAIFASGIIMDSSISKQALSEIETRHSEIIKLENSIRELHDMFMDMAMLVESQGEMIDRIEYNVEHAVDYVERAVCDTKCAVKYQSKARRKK
Sequence (P60881 other isoform, or with tags, fused parts or gaps, chain 2 of 3, further chain): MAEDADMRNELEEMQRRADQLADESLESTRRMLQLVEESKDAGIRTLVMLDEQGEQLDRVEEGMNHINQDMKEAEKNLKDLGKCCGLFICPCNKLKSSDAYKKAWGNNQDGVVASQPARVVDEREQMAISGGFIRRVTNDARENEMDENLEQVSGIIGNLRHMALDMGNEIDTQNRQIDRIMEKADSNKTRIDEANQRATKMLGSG
Sequence (P63045 1-96, chain 3 of 3, further chain): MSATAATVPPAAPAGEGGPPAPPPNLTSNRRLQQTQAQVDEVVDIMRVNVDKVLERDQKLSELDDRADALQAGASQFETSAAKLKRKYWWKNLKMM

Sequence of N-Ethylmaleimide-sensitive factor (NSF) (P18708 whole entry): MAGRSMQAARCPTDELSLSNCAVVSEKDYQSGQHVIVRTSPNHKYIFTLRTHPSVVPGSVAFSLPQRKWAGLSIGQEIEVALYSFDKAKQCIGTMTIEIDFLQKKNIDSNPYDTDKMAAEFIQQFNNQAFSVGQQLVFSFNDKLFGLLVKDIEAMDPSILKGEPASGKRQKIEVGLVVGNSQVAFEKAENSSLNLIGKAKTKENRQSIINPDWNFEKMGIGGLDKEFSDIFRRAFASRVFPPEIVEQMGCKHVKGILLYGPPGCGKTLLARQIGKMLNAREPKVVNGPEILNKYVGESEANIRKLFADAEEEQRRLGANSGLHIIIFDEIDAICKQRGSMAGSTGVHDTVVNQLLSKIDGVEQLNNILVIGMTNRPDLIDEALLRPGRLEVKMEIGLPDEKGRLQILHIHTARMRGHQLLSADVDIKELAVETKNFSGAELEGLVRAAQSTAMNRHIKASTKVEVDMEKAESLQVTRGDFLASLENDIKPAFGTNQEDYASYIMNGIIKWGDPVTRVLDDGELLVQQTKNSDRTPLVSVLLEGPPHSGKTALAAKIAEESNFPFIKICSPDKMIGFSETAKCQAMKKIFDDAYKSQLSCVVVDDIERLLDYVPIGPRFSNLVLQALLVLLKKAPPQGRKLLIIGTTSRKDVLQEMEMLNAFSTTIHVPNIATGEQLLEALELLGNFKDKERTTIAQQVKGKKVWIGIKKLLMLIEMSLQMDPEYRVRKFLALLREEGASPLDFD
Sequence of α-soluble NSF attachment protein (α-SNAP) (P54921 whole entry): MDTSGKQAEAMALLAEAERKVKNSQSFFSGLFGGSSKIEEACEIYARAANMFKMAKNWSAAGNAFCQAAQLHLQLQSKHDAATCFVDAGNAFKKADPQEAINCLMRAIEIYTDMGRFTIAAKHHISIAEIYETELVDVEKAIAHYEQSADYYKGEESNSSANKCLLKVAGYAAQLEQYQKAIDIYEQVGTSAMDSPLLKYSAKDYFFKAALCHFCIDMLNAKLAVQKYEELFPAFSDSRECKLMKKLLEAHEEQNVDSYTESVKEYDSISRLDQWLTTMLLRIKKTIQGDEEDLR

| Substance | SNARE-dependent activation of the ATPase activity of NSF (coupled ATPase assay, 37 °C, with α-SNAP, KCl and NaCl omitted) | SNARE-dependent activation of the ATPase activity of NSF (coupled ATPase assay, 37 °C; activation was dependent on α-SNAP) |
| --- | --- | --- |
| N-Ethylmaleimide-sensitive factor (NSF) (from UniProt P18708 1-744) (enzyme) | 26 fold | – |
| α-soluble NSF attachment protein (α-SNAP) (from UniProt P54921 1-295) (natural protein) | – | 26 fold |
